Starred links: 1 amine or outer side, 2 acyl side, 3 side chain; linkers in the order of their positions; H or OH if unused. Positions of bridges follow the written chain, without caps; N, C: chain ends. Groups on a side chain read outwards from the residue. No end group written: not given here. *: point of attachment. C20 diacid = O=C(O)CCCCCCCCCCCCCCCCCCC(=O)*; C18 diacid = O=C(O)CCCCCCCCCCCCCCCCC(=O)*; γGlu = O=C(O)[C@H](CCC(=O)[*:2])N[*:1]
Assays:
[1] = molecular target: T1, human amylin 3 receptor (human, UniProt P30988 25-474; O60896 24-148); test: cell-based or functional assay
T1 sequence (looked up) 1: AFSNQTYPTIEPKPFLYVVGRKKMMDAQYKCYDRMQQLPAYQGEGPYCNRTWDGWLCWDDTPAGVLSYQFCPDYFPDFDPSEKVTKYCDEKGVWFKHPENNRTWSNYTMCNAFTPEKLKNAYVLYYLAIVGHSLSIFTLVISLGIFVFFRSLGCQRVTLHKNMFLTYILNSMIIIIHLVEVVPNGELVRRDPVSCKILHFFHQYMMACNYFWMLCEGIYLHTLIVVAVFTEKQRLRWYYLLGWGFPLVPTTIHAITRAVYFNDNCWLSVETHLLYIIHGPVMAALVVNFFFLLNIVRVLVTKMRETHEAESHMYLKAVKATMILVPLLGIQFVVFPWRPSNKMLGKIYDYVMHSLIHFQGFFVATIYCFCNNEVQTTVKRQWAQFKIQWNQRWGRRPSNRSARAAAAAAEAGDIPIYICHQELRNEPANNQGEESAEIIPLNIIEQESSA
T1 sequence (looked up) 2: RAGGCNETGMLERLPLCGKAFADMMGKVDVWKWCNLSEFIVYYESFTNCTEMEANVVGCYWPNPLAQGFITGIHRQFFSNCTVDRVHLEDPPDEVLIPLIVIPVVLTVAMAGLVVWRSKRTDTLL

[2] = molecular target: T2, human calcitonin receptor (human, UniProt P30988 25-474); test: cell-based or functional assay
T2 sequence (looked up): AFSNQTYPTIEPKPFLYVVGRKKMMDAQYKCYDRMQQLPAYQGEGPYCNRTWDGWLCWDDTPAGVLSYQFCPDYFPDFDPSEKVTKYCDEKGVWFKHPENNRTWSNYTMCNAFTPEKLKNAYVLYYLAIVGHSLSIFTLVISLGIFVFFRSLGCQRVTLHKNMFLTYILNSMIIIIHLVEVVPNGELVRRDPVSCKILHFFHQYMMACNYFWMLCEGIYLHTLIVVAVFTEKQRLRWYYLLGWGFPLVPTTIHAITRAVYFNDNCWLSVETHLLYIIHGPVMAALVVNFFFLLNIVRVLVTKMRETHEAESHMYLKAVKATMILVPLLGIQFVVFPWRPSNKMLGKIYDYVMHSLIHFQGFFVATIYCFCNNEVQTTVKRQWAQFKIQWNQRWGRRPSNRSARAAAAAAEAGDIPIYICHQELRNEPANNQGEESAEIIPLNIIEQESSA

B1: Compound A116 (peptide)
peptide: K([γGlu-C20 diacid])CNTSTCATSRLANFLQKSSNNFGPILPPTKVGSETY-NH2
modifications: disulfide 2-7; N-terminus assumed
SMILES: CC[C@H](C)[C@H](NC(=O)[C@@H]1CCCN1C(=O)CNC(=O)[C@H](Cc1ccccc1)NC(=O)[C@H](CC(N)=O)NC(=O)[C@H](CC(N)=O)NC(=O)[C@H](CO)NC(=O)[C@H](CO)NC(=O)[C@H](CCCCN)NC(=O)[C@H](CCC(N)=O)NC(=O)[C@H](CC(C)C)NC(=O)[C@H](Cc1ccccc1)NC(=O)[C@H](CC(N)=O)NC(=O)[C@H](C)NC(=O)[C@H](CC(C)C)NC(=O)[C@H](CCCNC(=N)N)NC(=O)[C@H](CO)NC(=O)[C@@H](NC(=O)[C@H](C)NC(=O)[C@@H]1CSSC[C@H](NC(=O)[C@@H](N)CCCCNC(=O)CC[C@H](NC(=O)CCCCCCCCCCCCCCCCCCC(=O)O)C(=O)O)C(=O)N[C@@H](CC(N)=O)C(=O)N[C@@H]([C@@H](C)O)C(=O)N[C@@H](CO)C(=O)N[C@@H]([C@@H](C)O)C(=O)N1)[C@@H](C)O)C(=O)N[C@@H](CC(C)C)C(=O)N1CCC[C@H]1C(=O)N1CCC[C@H]1C(=O)N[C@H](C(=O)N[C@@H](CCCCN)C(=O)N[C@H](C(=O)NCC(=O)N[C@@H](CO)C(=O)N[C@@H](CCC(=O)O)C(=O)N[C@H](C(=O)N[C@@H](Cc1ccc(O)cc1)C(N)=O)[C@@H](C)O)C(C)C)[C@@H](C)O
For B1, the “pEC50 (cAMP accumulation), 0% HSA” value [1] was 12 pEC50, the “pEC50 (cAMP accumulation), 0.1% HSA” value [1] was 10.8 pEC50 and the “pEC50 (cAMP accumulation), 4% HSA” value [1] was 9.5 pEC50. For the same binder, the “pEC50 (cAMP accumulation), 0% HSA” value [2] was 11.7 pEC50, the “pEC50 (cAMP accumulation), 0.1% HSA” value [2] was 10.5 pEC50 and the “pEC50 (cAMP accumulation), 4% HSA” value [2] was 9.3 pEC50.

B2: Compound A76 (peptide)
peptide: SCNTSTCATQRLANEK([γGlu-C18 diacid])HKSSNNFGPILPPTKVGSETY-NH2
modifications: disulfide 2-7; N-terminus assumed
SMILES: CC[C@H](C)[C@H](NC(=O)[C@@H]1CCCN1C(=O)CNC(=O)[C@H](Cc1ccccc1)NC(=O)[C@H](CC(N)=O)NC(=O)[C@H](CC(N)=O)NC(=O)[C@H](CO)NC(=O)[C@H](CO)NC(=O)[C@H](CCCCN)NC(=O)[C@H](Cc1c[nH]cn1)NC(=O)[C@H](CCCCNC(=O)CC[C@H](NC(=O)CCCCCCCCCCCCCCCCC(=O)O)C(=O)O)NC(=O)[C@H](CCC(=O)O)NC(=O)[C@H](CC(N)=O)NC(=O)[C@H](C)NC(=O)[C@H](CC(C)C)NC(=O)[C@H](CCCNC(=N)N)NC(=O)[C@H](CCC(N)=O)NC(=O)[C@@H](NC(=O)[C@H](C)NC(=O)[C@@H]1CSSC[C@H](NC(=O)[C@@H](N)CO)C(=O)N[C@@H](CC(N)=O)C(=O)N[C@@H]([C@@H](C)O)C(=O)N[C@@H](CO)C(=O)N[C@@H]([C@@H](C)O)C(=O)N1)[C@@H](C)O)C(=O)N[C@@H](CC(C)C)C(=O)N1CCC[C@H]1C(=O)N1CCC[C@H]1C(=O)N[C@H](C(=O)N[C@@H](CCCCN)C(=O)N[C@H](C(=O)NCC(=O)N[C@@H](CO)C(=O)N[C@@H](CCC(=O)O)C(=O)N[C@H](C(=O)N[C@@H](Cc1ccc(O)cc1)C(N)=O)[C@@H](C)O)C(C)C)[C@@H](C)O
With B2 the “pEC50 (cAMP accumulation), 0% HSA” value [1] was 11.7 pEC50, the “pEC50 (cAMP accumulation), 0.1% HSA” value [1] was 10.5 pEC50 and the “pEC50 (cAMP accumulation), 4% HSA” value [1] was 8.7 pEC50. The “pEC50 (cAMP accumulation), 0% HSA” value [2] was 10.5 pEC50, the “pEC50 (cAMP accumulation), 0.1% HSA” value [2] was 9.4 pEC50 and the “pEC50 (cAMP accumulation), 4% HSA” value [2] was 8.1 pEC50.

B3: Compound A55 (peptide)
peptide: K(C18 diacid)CNTSTCATSRLANFLQKSSNNFGPILPPTKVGSETY-NH2
modifications: disulfide 2-7; N-terminus assumed
SMILES: CC[C@H](C)[C@H](NC(=O)[C@@H]1CCCN1C(=O)CNC(=O)[C@H](Cc1ccccc1)NC(=O)[C@H](CC(N)=O)NC(=O)[C@H](CC(N)=O)NC(=O)[C@H](CO)NC(=O)[C@H](CO)NC(=O)[C@H](CCCCN)NC(=O)[C@H](CCC(N)=O)NC(=O)[C@H](CC(C)C)NC(=O)[C@H](Cc1ccccc1)NC(=O)[C@H](CC(N)=O)NC(=O)[C@H](C)NC(=O)[C@H](CC(C)C)NC(=O)[C@H](CCCNC(=N)N)NC(=O)[C@H](CO)NC(=O)[C@@H](NC(=O)[C@H](C)NC(=O)[C@@H]1CSSC[C@H](NC(=O)[C@@H](N)CCCCNC(=O)CCCCCCCCCCCCCCCCC(=O)O)C(=O)N[C@@H](CC(N)=O)C(=O)N[C@@H]([C@@H](C)O)C(=O)N[C@@H](CO)C(=O)N[C@@H]([C@@H](C)O)C(=O)N1)[C@@H](C)O)C(=O)N[C@@H](CC(C)C)C(=O)N1CCC[C@H]1C(=O)N1CCC[C@H]1C(=O)N[C@H](C(=O)N[C@@H](CCCCN)C(=O)N[C@H](C(=O)NCC(=O)N[C@@H](CO)C(=O)N[C@@H](CCC(=O)O)C(=O)N[C@H](C(=O)N[C@@H](Cc1ccc(O)cc1)C(N)=O)[C@@H](C)O)C(C)C)[C@@H](C)O
B3 was tested, and the “pEC50 (cAMP accumulation), 0% HSA” value [1] was 12.2 pEC50, the “pEC50 (cAMP accumulation), 0.1% HSA” value [1] was 11.2 pEC50 and the “pEC50 (cAMP accumulation), 4% HSA” value [1] was 9.6 pEC50. The “pEC50 (cAMP accumulation), 0% HSA” value [2] was 11.3 pEC50, the “pEC50 (cAMP accumulation), 0.1% HSA” value [2] was 10.2 pEC50 and the “pEC50 (cAMP accumulation), 4% HSA” value [2] was 8.8 pEC50.

KCNTATCATQRLANFLVHSSNNFGPILPPTNVGSNTY-NH2 (disulfide 2-7; ends not checked) [Pramlintide] was tested, and the “pEC50 (cAMP accumulation), 0% HSA” value [1] was 12.5 pEC50, the “pEC50 (cAMP accumulation), 0.1% HSA” value [1] was 12.6 pEC50 and the “pEC50 (cAMP accumulation), 4% HSA” value [1] was 12.5 pEC50. For the same binder, the “pEC50 (cAMP accumulation), 0% HSA” value [2] was 11.4 pEC50, the “pEC50 (cAMP accumulation), 0.1% HSA” value [2] was 11.2 pEC50 and the “pEC50 (cAMP accumulation), 4% HSA” value [2] was 11.1 pEC50.

B4: Compound A114 (peptide)
peptide: K([γGlu-γGlu-C20 diacid])CNTSTCATSRLANFLQKSSNNFGPILPPTKVGSETY-NH2
modifications: disulfide 2-7; N-terminus assumed
SMILES: CC[C@H](C)[C@H](NC(=O)[C@@H]1CCCN1C(=O)CNC(=O)[C@H](Cc1ccccc1)NC(=O)[C@H](CC(N)=O)NC(=O)[C@H](CC(N)=O)NC(=O)[C@H](CO)NC(=O)[C@H](CO)NC(=O)[C@H](CCCCN)NC(=O)[C@H](CCC(N)=O)NC(=O)[C@H](CC(C)C)NC(=O)[C@H](Cc1ccccc1)NC(=O)[C@H](CC(N)=O)NC(=O)[C@H](C)NC(=O)[C@H](CC(C)C)NC(=O)[C@H](CCCNC(=N)N)NC(=O)[C@H](CO)NC(=O)[C@@H](NC(=O)[C@H](C)NC(=O)[C@@H]1CSSC[C@H](NC(=O)[C@@H](N)CCCCNC(=O)CC[C@H](NC(=O)CC[C@H](NC(=O)CCCCCCCCCCCCCCCCCCC(=O)O)C(=O)O)C(=O)O)C(=O)N[C@@H](CC(N)=O)C(=O)N[C@@H]([C@@H](C)O)C(=O)N[C@@H](CO)C(=O)N[C@@H]([C@@H](C)O)C(=O)N1)[C@@H](C)O)C(=O)N[C@@H](CC(C)C)C(=O)N1CCC[C@H]1C(=O)N1CCC[C@H]1C(=O)N[C@H](C(=O)N[C@@H](CCCCN)C(=O)N[C@H](C(=O)NCC(=O)N[C@@H](CO)C(=O)N[C@@H](CCC(=O)O)C(=O)N[C@H](C(=O)N[C@@H](Cc1ccc(O)cc1)C(N)=O)[C@@H](C)O)C(C)C)[C@@H](C)O
In the case of B4, the “pEC50 (cAMP accumulation), 0% HSA” value [1] is reported as 12.2 pEC50, the “pEC50 (cAMP accumulation), 0.1% HSA” value [1] is reported as 10.7 pEC50 and the “pEC50 (cAMP accumulation), 4% HSA” value [1] is reported as 9.5 pEC50. For the same binder, the “pEC50 (cAMP accumulation), 0% HSA” value [2] was 11.7 pEC50, the “pEC50 (cAMP accumulation), 0.1% HSA” value [2] was 10.4 pEC50 and the “pEC50 (cAMP accumulation), 4% HSA” value [2] was 8.8 pEC50.

B5: Compound A73 (peptide)
peptide: SCNTSTCATQRLANEK([γGlu-C20 diacid])HKSSNNFGPILPPTKVGSETY-NH2
modifications: disulfide 2-7; N-terminus assumed
SMILES: CC[C@H](C)[C@H](NC(=O)[C@@H]1CCCN1C(=O)CNC(=O)[C@H](Cc1ccccc1)NC(=O)[C@H](CC(N)=O)NC(=O)[C@H](CC(N)=O)NC(=O)[C@H](CO)NC(=O)[C@H](CO)NC(=O)[C@H](CCCCN)NC(=O)[C@H](Cc1c[nH]cn1)NC(=O)[C@H](CCCCNC(=O)CC[C@H](NC(=O)CCCCCCCCCCCCCCCCCCC(=O)O)C(=O)O)NC(=O)[C@H](CCC(=O)O)NC(=O)[C@H](CC(N)=O)NC(=O)[C@H](C)NC(=O)[C@H](CC(C)C)NC(=O)[C@H](CCCNC(=N)N)NC(=O)[C@H](CCC(N)=O)NC(=O)[C@@H](NC(=O)[C@H](C)NC(=O)[C@@H]1CSSC[C@H](NC(=O)[C@@H](N)CO)C(=O)N[C@@H](CC(N)=O)C(=O)N[C@@H]([C@@H](C)O)C(=O)N[C@@H](CO)C(=O)N[C@@H]([C@@H](C)O)C(=O)N1)[C@@H](C)O)C(=O)N[C@@H](CC(C)C)C(=O)N1CCC[C@H]1C(=O)N1CCC[C@H]1C(=O)N[C@H](C(=O)N[C@@H](CCCCN)C(=O)N[C@H](C(=O)NCC(=O)N[C@@H](CO)C(=O)N[C@@H](CCC(=O)O)C(=O)N[C@H](C(=O)N[C@@H](Cc1ccc(O)cc1)C(N)=O)[C@@H](C)O)C(C)C)[C@@H](C)O
For B5, the “pEC50 (cAMP accumulation), 0% HSA” value [1] was 12.1 pEC50, the “pEC50 (cAMP accumulation), 0.1% HSA” value [1] was 10.6 pEC50 and the “pEC50 (cAMP accumulation), 4% HSA” value [1] was 8.8 pEC50. For the same binder, the “pEC50 (cAMP accumulation), 0% HSA” value [2] was 11.3 pEC50, the “pEC50 (cAMP accumulation), 0.1% HSA” value [2] was 9.6 pEC50 and the “pEC50 (cAMP accumulation), 4% HSA” value [2] was 7.9 pEC50.
